# Laboratory results as given in IntAct's records for PubMed 29039417.
# B1: Protein PTHB1 (Homo sapiens), Q3SYG4 (parent)
# chain: MSLFKARDWWSTILGDKEEFDQGCLCLANVDNSGNGQDKIIVGSFMGYLRIFSPHPAKTGDGAQAEDLLLEVDLRDPVLQVEVGKFVSGTEMLHLAVLHSRKLCVYSVSGTLGNVEHGNQCQMKLMYEHNLQRTACNMTYGSFGGVKGRDLICIQSMDGMLMVFEQESYAFGRFLPGFLLPGPLAYSSRTDSFLTVSSCQQVESYKYQVLAFATDADKRQETEQQKLGSGKRLVVDWTLNIGEQALDICIVSFNQSASSVFVLGERNFFCLKDNGQIRFMKKLDWSPSCFLPYCSVSEGTINTLIGNHNNMLHIYQDVTLKWATQLPHIPVAVRVGCLHDLKGVIVTLSDDGHLQCSYLGTDPSLFQAPNVQSRELNYDELDVEMKELQKIIKDVNKSQGVWPMTEREDDLNVSVVVSPNFDSVSQATDVEVGTDLVPSVTVKVTLQNRVILQKAKLSVYVQPPLELTCDQFTFEFMTPDLTRTVSFSVYLKRSYTPSELEGNAVVSYSRPTDRNPDGIPRVIQCKFRLPLKLICLPGQPSKTASHKITIDTNKSPVSLLSLFPGFASQSDDDQVNVMGFHFLGGARITVLASKTSQRYRIQSEQFEDLWLITNELILRLQEYFEKQGVKDFACSFSGSIPLQEYFELIDHHFELRINGEKLEELLSERAVQFRAIQRRLLARFKDKTPAPLQHLDTLLDGTYKQVIALADAVEENQGNLFQSFTRLKSATHLVILLIALWQKLSADQVAILEAAFLPLQEDTQELGWEETVDAAISHLLKTCLSKSSKEQALNLNSQLNIPKDTSQLKKHITLLCDRLSKGGRLCLSTDAAAPQTMVMPGGCTTIPESDLEERSVEQDSTELFTNHRHLTAETPRPEVSPLQGVSE
# partner: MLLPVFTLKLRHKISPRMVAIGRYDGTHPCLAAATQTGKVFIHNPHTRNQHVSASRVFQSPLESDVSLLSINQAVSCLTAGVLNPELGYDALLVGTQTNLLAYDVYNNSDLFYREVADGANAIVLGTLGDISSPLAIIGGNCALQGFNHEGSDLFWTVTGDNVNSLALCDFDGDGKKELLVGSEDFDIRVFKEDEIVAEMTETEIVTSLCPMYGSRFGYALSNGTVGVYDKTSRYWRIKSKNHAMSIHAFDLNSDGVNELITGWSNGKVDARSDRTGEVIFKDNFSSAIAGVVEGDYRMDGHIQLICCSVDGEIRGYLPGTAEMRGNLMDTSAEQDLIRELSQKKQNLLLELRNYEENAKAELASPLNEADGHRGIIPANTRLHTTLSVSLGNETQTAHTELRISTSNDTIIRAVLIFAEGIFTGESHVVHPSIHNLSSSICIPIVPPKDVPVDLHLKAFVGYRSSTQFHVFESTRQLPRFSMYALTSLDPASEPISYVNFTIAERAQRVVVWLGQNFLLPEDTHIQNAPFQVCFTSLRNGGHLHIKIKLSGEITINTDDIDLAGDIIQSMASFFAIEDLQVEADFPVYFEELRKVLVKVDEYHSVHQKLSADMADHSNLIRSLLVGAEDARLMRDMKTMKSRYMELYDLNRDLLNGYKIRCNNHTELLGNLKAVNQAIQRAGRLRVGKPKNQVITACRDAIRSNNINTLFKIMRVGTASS
# Variants of: B1
# Details: with bbs2_human BBS2, Q9BXC9
row,Variant,effect of a mutation on the interaction
1,F632E,with no effect
2,F632K,with no effect
3,F632A,with no effect
4,C634A,with no effect
5,C634K,with no effect
6,C634E,with no effect
7,H651E,with no effect
8,H651K,with no effect
9,H651A,with no effect
10,E622A,with no effect
11,E622K,with no effect
12,W610K,with no effect
13,W610A,with no effect
14,W610E,with no effect
15,E604A,with no effect
16,E604K,with no effect
17,D650K,with no effect
18,D650E,with no effect
19,D650A,with no effect
20,L662E,with no effect
21,L662A,with no effect
22,L662K,with no effect
23,E647K,with no effect
24,E647A,with no effect

row,Variant,effect of a mutation on the interaction
1,L642E,with no effect
2,L642K,with no effect
3,L642A,with no effect
4,E607K,with no effect
5,E607A,with no effect
6,L665K,with no effect
7,L665A,with no effect
8,L665E,with no effect
9,L665R,disrupting interaction strength
10,E664A,with no effect
11,E664K,with no effect
12,I617A,with no effect
13,I617E,with no effect
14,I617K,with no effect
15,N614K,with no effect
16,N614A,with no effect
17,N614E,with no effect
18,A633V,disrupting interaction strength
19,A633K,with no effect
20,A633E,with no effect
21,Q605E,with no effect
22,Q605K,with no effect
23,Q605A,with no effect
24,G638E,with no effect

row,Variant,effect of a mutation on the interaction
1,G638K,with no effect
2,G638A,with no effect
3,S603E,with no effect
4,S603K,with no effect
5,S603A,with no effect
6,H652A,with no effect
7,H652K,with no effect
8,H652E,with no effect
9,G628A,with no effect
10,G628K,with no effect
11,G628E,disrupting interaction strength
12,P641K,with no effect
13,P641E,with no effect
14,P641A,with no effect
15,L609K,with no effect
16,L609A,with no effect
17,L609E,with no effect
18,V629A,with no effect
19,V629E,with no effect
20,V629K,with no effect
21,E625A,with no effect
22,E625K,with no effect
23,N658E,with no effect
24,N658K,with no effect

row,Variant,effect of a mutation on the interaction
1,N658A,with no effect
2,L618E,with no effect
3,L618A,with no effect
4,L618K,with no effect
5,L655K,with no effect
6,L655A,with no effect
7,L655E,with no effect
8,L611E,with no effect
9,L611K,with no effect
10,L611A,with no effect
11,L648K,with no effect
12,L648A,with no effect
13,L648E,with no effect
14,D608K,with no effect
15,D608A,with no effect
16,D608E,with no effect
17,Y645K,with no effect
18,Y645A,with no effect
19,Y645E,with no effect
20,E644A,with no effect
21,E644K,with no effect
22,Y623E,with no effect
23,Y623K,with no effect
24,Y623A,with no effect

row,Variant,effect of a mutation on the interaction
1,G659E,with no effect
2,G659A,with no effect
3,G659K,with no effect
4,K661E,with no effect
5,K661A,with no effect
6,F624N,disrupting interaction strength
7,F624E,with no effect
8,F624K,with no effect
9,F624A,with no effect
10,R619E,with no effect
11,R619K,with no effect
12,R619A,with no effect
13,Q627K,with no effect
14,Q627E,with no effect
15,Q627A,with no effect
16,E660A,with no effect
17,E660K,with no effect
18,L666A,with no effect
19,L666K,with no effect
20,L666E,with no effect
21,T613I,disrupting interaction strength
22,T613K,with no effect
23,T613A,with no effect
24,T613E,with no effect

row,Variant,effect of a mutation on the interaction
1,Q643K,with no effect
2,Q643A,with no effect
3,Q643E,with no effect
4,S635A,with no effect
5,S635E,with no effect
6,S635K,with no effect
7,S667K,with no effect
8,S667E,with no effect
9,S667A,with no effect
10,E654K,with no effect
11,E654A,with no effect
12,I612K,with no effect
13,I612A,with no effect
14,I612E,with no effect
15,L616E,with no effect
16,L616A,with no effect
17,L616K,with no effect
18,S639K,with no effect
19,S639E,with no effect
20,S639A,with no effect
21,K630A,with no effect
22,K630E,with no effect
23,I649A,with no effect
24,I649K,with no effect

row,Variant,effect of a mutation on the interaction
1,I649E,with no effect
2,E668A,with no effect
3,F606K,with no effect
4,F606E,with no effect
5,F606A,with no effect
6,E663A,with no effect
7,E663K,with no effect
8,F653K,with no effect
9,F653A,with no effect
10,F653E,with no effect
11,I657K,with no effect
12,I657A,with no effect
13,I657E,with no effect
14,F636E,with no effect
15,F636K,with no effect
16,F636A,with no effect
17,Q621K,with no effect
18,Q621E,with no effect
19,Q621A,with no effect
20,R656E,with no effect
21,R656A,with no effect
22,R656K,with no effect
23,I640K,with no effect
24,I640A,with no effect

row,Variant,effect of a mutation on the interaction
1,I640E,with no effect
2,S637K,with no effect
3,S637E,with no effect
4,S637A,with no effect
5,D631E,with no effect
6,D631A,with no effect
7,D631K,with no effect
8,E615K,with no effect
9,E615A,with no effect
10,F646K,with no effect
11,F646E,with no effect
12,F646A,with no effect
13,K626A,with no effect
14,K626E,with no effect
15,L620K,with no effect
16,L620A,with no effect
17,L620E,with no effect
